Measured values as given in article PMC12775136, “Mechanistic insights into recruitment and regulation of the RNA helicase UPF1 in replication-dependent histone mRNA decay” (Nature Communications, 2025).

T1: 3′hExofl (human, UniProt Q8IV48 1-349)
T1 construct: human 3′hExo (ERI1), full length; Modified pET28a, N-terminal 6x His-tag followed by an HRV-3C site; also called ERI1; full-length 3′hExo; source: E. coli BL21 Star (DE3) pRARE, purified (Ni-NTA, heparin, SEC)
T1 sequence (looked up): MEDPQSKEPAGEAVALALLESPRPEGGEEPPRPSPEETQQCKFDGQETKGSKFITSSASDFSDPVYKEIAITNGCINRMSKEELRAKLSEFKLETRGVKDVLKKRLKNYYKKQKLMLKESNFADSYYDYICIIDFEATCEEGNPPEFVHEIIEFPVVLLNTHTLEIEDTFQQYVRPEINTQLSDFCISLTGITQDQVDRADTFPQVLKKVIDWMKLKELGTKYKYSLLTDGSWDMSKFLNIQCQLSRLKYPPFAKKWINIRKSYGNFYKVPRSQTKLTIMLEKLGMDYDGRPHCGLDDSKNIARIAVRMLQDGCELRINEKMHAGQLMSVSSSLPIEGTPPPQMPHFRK

T2: 3′hExo as used in surface plasmon resonance (human, UniProt Q8IV48 1-349)
T2 construct: human 3′hExo (ERI1); Likely 3′hExofl
T2 sequence (looked up): T1 sequence (looked up)

B1: UPF2-ALm (residues 1024–1085) (domain or fragment, human, UniProt Q9HAU5 1024-1085, looked up)
chain: TEGENLEEDEEEEEGGAETEEQSGNESEVNEPEEEEGSDNDDDEGEEEEEENTDYLTDSNKE
notes: human UPF2, residues 1024–1085 of the acidic linker; source: E. coli, purified; 15N-labelled
B2: UPF2 as used in surface plasmon resonance (domain or fragment)
chain: KKKTEGENLEEDEEEEEGGAETEEQSGNESEVNEPEEEEGSDNDDDEGEEEEEENTDYLTDSNKE
modifications: not fully specified; numbers in words are those of the source; also: modified acidic linker UPF2-ALm, further changes not given here

What was measured:
[1] = target: T1, 3′hExofl; experiment: NMR titration; 1H-15N HSQC of 15N-labelled UPF2-AL or UPF2-ALm with stepwise addition of unlabelled 3′hExo proteins; 298 K; 20 mM HEPES pH 7.0, 100 mM NaCl, 2 mM DTT; KD from twelve amide peaks, one-to-one binding isotherm; settings: both partners purified
[2] = target: T2, 3′hExo as used in surface plasmon …; experiment: SPR; format not told in the text shown; settings: both partners purified

Row | Binder | Kd [1] [µM] | Kd [2] [µM]
1 | B1 | ~200 | –
2 | B2 | – | ~170
